# Test results: patent publication US20250019438A1 (AstraZeneca / MedImmune, published 2025)
# Target: Biotinylated recombinant human CD3εδ (Acro Biosystems, CDD-H82W6) (human) (UniProt P07766)
# Assay: Octet BLI, biotinylated CD3εδ on streptavidin sensors, 1:1 model
# Biotinylated recombinant human CD3εδ (Acro Biosystems, CDD-H82W6) (human), sequence (P07766 23-126, stated change not applied, chain 1 of 2): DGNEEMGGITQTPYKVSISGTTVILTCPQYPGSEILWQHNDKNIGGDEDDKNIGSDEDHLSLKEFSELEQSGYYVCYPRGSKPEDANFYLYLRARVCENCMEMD
# Biotinylated recombinant human CD3εδ (Acro Biosystems, CDD-H82W6) (human), sequence (P04234 22-105, stated change not applied, chain 2 of 2, further chain): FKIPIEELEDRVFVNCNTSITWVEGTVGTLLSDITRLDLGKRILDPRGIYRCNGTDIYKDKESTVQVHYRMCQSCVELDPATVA
Binder,Kd [nM],koff [s⁻¹],kon [M⁻¹ s⁻¹]
"EGFR-CD3 DuetMab with anti-CD3 variant AZ Vκ 29 + AZ VH SN75 (bispecific antibody, part only; not given: anti-EGFR arm, constant regions, V domains shown, not shown: another chain or arm of the molecule; a dimerising Fc or GST; small tags and cut ends) VH: EVQLVESGGALVKPGGSLRLSCAASGFTFSNAWMHWVRQAPGKQLEWVAQIKDRSQTYATYYAESVKGRFTISRDDSKNTLYLQMNSLKTEDTAVYYCRGVYYANAPFDYWGQGTLVTVSS VL: DIVMTQSPLSLPVTPGEPASISCRSSQSLVHNTGNTYLSWYLQKPGQSPQSLIYKVSNRASGVPDRFSGSGSGTDFTLKISRVEAEDVGVYYCGQGTQFPFTFGSGTKVEIK",1010,0.0282,27900
"EGFR-CD3 DuetMab with anti-CD3 variant AZ Vκ 17 + AZ VH E79 (bispecific antibody, part only; not given: anti-EGFR arm, constant regions, V domains shown, not shown: another chain or arm of the molecule; a dimerising Fc or GST; small tags and cut ends) VH: EVQLVESGGALVKPGGSLRLSCAASGFTFTEAWMHWVRQAPGKQLEWVAQIKDRSQTYATYYAESVKGRFTISRDDSKNTLYLQMNSLKTEDTAVYYCRGVYYAVTPFDYWGQGTLVTVSS VL: DIVMTQSPLSLPVTPGEPASISCRSSQSLVHNTGNTYLSWYLQKPGQSPQSLIYKVSNRASGVPDRFSGSGSGTDFTLKISRVEAEDVGVYYCGQGTQAPFTFGSGTKVEIK",5620,0.0497,8850
"EGFR-CD3 DuetMab with anti-CD3 variant AZ Vκ 17 + AZ VH SN82 (bispecific antibody, part only; not given: anti-EGFR arm, constant regions, V domains shown, not shown: another chain or arm of the molecule; a dimerising Fc or GST; small tags and cut ends) VH: EVQLVESGGALVKPGGSLRLSCAASGFTFSNAWMHWVRQAPGKQLEWVAQIKDRSQTYATYYAESVKGRFTISRDDSKNTLYLQMNSLKTEDTAVYYCRGVYYANTPFDYWGQGTLVTVSS VL: DIVMTQSPLSLPVTPGEPASISCRSSQSLVHNTGNTYLSWYLQKPGQSPQSLIYKVSNRASGVPDRFSGSGSGTDFTLKISRVEAEDVGVYYCGQGTQAPFTFGSGTKVEIK",1640,0.0149,9100
"EGFR-CD3 DuetMab with anti-CD3 variant AZ Vκ 29 + AZ VH SN79 (bispecific antibody, part only; not given: anti-EGFR arm, constant regions, V domains shown, not shown: another chain or arm of the molecule; a dimerising Fc or GST; small tags and cut ends) VH: EVQLVESGGALVKPGGSLRLSCAASGFTFSNAWMHWVRQAPGKQLEWVAQIKDRSQTYATYYAESVKGRFTISRDDSKNTLYLQMNSLKTEDTAVYYCRGVYYAVTPFDYWGQGTLVTVSS VL: DIVMTQSPLSLPVTPGEPASISCRSSQSLVHNTGNTYLSWYLQKPGQSPQSLIYKVSNRASGVPDRFSGSGSGTDFTLKISRVEAEDVGVYYCGQGTQFPFTFGSGTKVEIK",2670,0.114,42800
"EGFR-CD3 DuetMab with anti-CD3 variant AZ Vκ 17 + AZ VH R79 (bispecific antibody, part only; not given: anti-EGFR arm, constant regions, V domains shown, not shown: another chain or arm of the molecule; a dimerising Fc or GST; small tags and cut ends) VH: EVQLVESGGALVKPGGSLRLSCAASGFTFTRAWMHWVRQAPGKQLEWVAQIKDRSQTYATYYAESVKGRFTISRDDSKNTLYLQMNSLKTEDTAVYYCRGVYYAVTPFDYWGQGTLVTVSS VL: DIVMTQSPLSLPVTPGEPASISCRSSQSLVHNTGNTYLSWYLQKPGQSPQSLIYKVSNRASGVPDRFSGSGSGTDFTLKISRVEAEDVGVYYCGQGTQAPFTFGSGTKVEIK",734,0.018,24600
"EGFR-CD3 DuetMab with anti-CD3 variant AZ Vκ 17 + AZ VH R82 (bispecific antibody, part only; not given: anti-EGFR arm, constant regions, V domains shown, not shown: another chain or arm of the molecule; a dimerising Fc or GST; small tags and cut ends) VH: EVQLVESGGALVKPGGSLRLSCAASGFTFTRAWMHWVRQAPGKQLEWVAQIKDRSQTYATYYAESVKGRFTISRDDSKNTLYLQMNSLKTEDTAVYYCRGVYYANTPFDYWGQGTLVTVSS VL: DIVMTQSPLSLPVTPGEPASISCRSSQSLVHNTGNTYLSWYLQKPGQSPQSLIYKVSNRASGVPDRFSGSGSGTDFTLKISRVEAEDVGVYYCGQGTQAPFTFGSGTKVEIK",550,0.00928,16900
"EGFR-CD3 DuetMab with anti-CD3 variant AZ Vκ 17 + AZ VH SN79 (bispecific antibody, part only; not given: anti-EGFR arm, constant regions, V domains shown, not shown: another chain or arm of the molecule; a dimerising Fc or GST; small tags and cut ends) VH: EVQLVESGGALVKPGGSLRLSCAASGFTFSNAWMHWVRQAPGKQLEWVAQIKDRSQTYATYYAESVKGRFTISRDDSKNTLYLQMNSLKTEDTAVYYCRGVYYAVTPFDYWGQGTLVTVSS VL: DIVMTQSPLSLPVTPGEPASISCRSSQSLVHNTGNTYLSWYLQKPGQSPQSLIYKVSNRASGVPDRFSGSGSGTDFTLKISRVEAEDVGVYYCGQGTQAPFTFGSGTKVEIK",2050,0.032,15600
"EGFR-CD3 DuetMab with anti-CD3 variant AZ Vκ 17 + AZ VH E82 (bispecific antibody, part only; not given: anti-EGFR arm, constant regions, V domains shown, not shown: another chain or arm of the molecule; a dimerising Fc or GST; small tags and cut ends) VH: EVQLVESGGALVKPGGSLRLSCAASGFTFTEAWMHWVRQAPGKQLEWVAQIKDRSQTYATYYAESVKGRFTISRDDSKNTLYLQMNSLKTEDTAVYYCRGVYYANTPFDYWGQGTLVTVSS VL: DIVMTQSPLSLPVTPGEPASISCRSSQSLVHNTGNTYLSWYLQKPGQSPQSLIYKVSNRASGVPDRFSGSGSGTDFTLKISRVEAEDVGVYYCGQGTQAPFTFGSGTKVEIK",4610,0.033,7140
"EGFR-CD3 DuetMab with anti-CD3 variant AZ Vκ 26 + AZ VH R82 (bispecific antibody, part only; not given: anti-EGFR arm, constant regions, V domains shown, not shown: another chain or arm of the molecule; a dimerising Fc or GST; small tags and cut ends) VH: EVQLVESGGALVKPGGSLRLSCAASGFTFTRAWMHWVRQAPGKQLEWVAQIKDRSQTYATYYAESVKGRFTISRDDSKNTLYLQMNSLKTEDTAVYYCRGVYYANTPFDYWGQGTLVTVSS VL: DIVMTQSPLSLPVTPGEPASISCRSSQSLVHNTGNTYLSWYLQKPGQSPQSLIYKVSNRASGVPDRFSGSGSGTDFTLKISRVEAEDVGVYYCGQGTQAPFSFGSGTKVEIK",411,0.00711,17300
"EGFR-CD3 DuetMab with anti-CD3 variant AZ Vκ 29 + AZ VH E82 (bispecific antibody, part only; not given: anti-EGFR arm, constant regions, V domains shown, not shown: another chain or arm of the molecule; a dimerising Fc or GST; small tags and cut ends) VH: EVQLVESGGALVKPGGSLRLSCAASGFTFTEAWMHWVRQAPGKQLEWVAQIKDRSQTYATYYAESVKGRFTISRDDSKNTLYLQMNSLKTEDTAVYYCRGVYYANTPFDYWGQGTLVTVSS VL: DIVMTQSPLSLPVTPGEPASISCRSSQSLVHNTGNTYLSWYLQKPGQSPQSLIYKVSNRASGVPDRFSGSGSGTDFTLKISRVEAEDVGVYYCGQGTQFPFTFGSGTKVEIK",5000,0.0755,15100
"EGFR-CD3 DuetMab with anti-CD3 variant AZ Vκ 17 + AZ VH R75 (bispecific antibody, part only; not given: anti-EGFR arm, constant regions, V domains shown, not shown: another chain or arm of the molecule; a dimerising Fc or GST; small tags and cut ends) VH: EVQLVESGGALVKPGGSLRLSCAASGFTFTRAWMHWVRQAPGKQLEWVAQIKDRSQTYATYYAESVKGRFTISRDDSKNTLYLQMNSLKTEDTAVYYCRGVYYANAPFDYWGQGTLVTVSS VL: DIVMTQSPLSLPVTPGEPASISCRSSQSLVHNTGNTYLSWYLQKPGQSPQSLIYKVSNRASGVPDRFSGSGSGTDFTLKISRVEAEDVGVYYCGQGTQAPFTFGSGTKVEIK",266,0.00644,24200
"EGFR-CD3 DuetMab with anti-CD3 variant AZ Vκ 17 + AZ VH SN75 (bispecific antibody, part only; not given: anti-EGFR arm, constant regions, V domains shown, not shown: another chain or arm of the molecule; a dimerising Fc or GST; small tags and cut ends) VH: EVQLVESGGALVKPGGSLRLSCAASGFTFSNAWMHWVRQAPGKQLEWVAQIKDRSQTYATYYAESVKGRFTISRDDSKNTLYLQMNSLKTEDTAVYYCRGVYYANAPFDYWGQGTLVTVSS VL: DIVMTQSPLSLPVTPGEPASISCRSSQSLVHNTGNTYLSWYLQKPGQSPQSLIYKVSNRASGVPDRFSGSGSGTDFTLKISRVEAEDVGVYYCGQGTQAPFTFGSGTKVEIK",853,0.00923,10800
"EGFR-CD3 DuetMab with anti-CD3 variant AZ Vκ 29 + AZ VH E79 (bispecific antibody, part only; not given: anti-EGFR arm, constant regions, V domains shown, not shown: another chain or arm of the molecule; a dimerising Fc or GST; small tags and cut ends) VH: EVQLVESGGALVKPGGSLRLSCAASGFTFTEAWMHWVRQAPGKQLEWVAQIKDRSQTYATYYAESVKGRFTISRDDSKNTLYLQMNSLKTEDTAVYYCRGVYYAVTPFDYWGQGTLVTVSS VL: DIVMTQSPLSLPVTPGEPASISCRSSQSLVHNTGNTYLSWYLQKPGQSPQSLIYKVSNRASGVPDRFSGSGSGTDFTLKISRVEAEDVGVYYCGQGTQFPFTFGSGTKVEIK",4580,0.118,25800
"EGFR-CD3 DuetMab with anti-CD3 variant AZ Vκ 29 + AZ VH E75 (bispecific antibody, part only; not given: anti-EGFR arm, constant regions, V domains shown, not shown: another chain or arm of the molecule; a dimerising Fc or GST; small tags and cut ends) VH: EVQLVESGGALVKPGGSLRLSCAASGFTFTEAWMHWVRQAPGKQLEWVAQIKDRSQTYATYYAESVKGRFTISRDDSKNTLYLQMNSLKTEDTAVYYCRGVYYANAPFDYWGQGTLVTVSS VL: DIVMTQSPLSLPVTPGEPASISCRSSQSLVHNTGNTYLSWYLQKPGQSPQSLIYKVSNRASGVPDRFSGSGSGTDFTLKISRVEAEDVGVYYCGQGTQFPFTFGSGTKVEIK",2220,0.0404,18200
"EGFR-CD3 DuetMab with anti-CD3 variant AZ Vκ 26 + AZ VH R79 (bispecific antibody, part only; not given: anti-EGFR arm, constant regions, V domains shown, not shown: another chain or arm of the molecule; a dimerising Fc or GST; small tags and cut ends) VH: EVQLVESGGALVKPGGSLRLSCAASGFTFTRAWMHWVRQAPGKQLEWVAQIKDRSQTYATYYAESVKGRFTISRDDSKNTLYLQMNSLKTEDTAVYYCRGVYYAVTPFDYWGQGTLVTVSS VL: DIVMTQSPLSLPVTPGEPASISCRSSQSLVHNTGNTYLSWYLQKPGQSPQSLIYKVSNRASGVPDRFSGSGSGTDFTLKISRVEAEDVGVYYCGQGTQAPFSFGSGTKVEIK",712,0.0233,32700
"EGFR-CD3 DuetMab with anti-CD3 variant AZ Vκ 29 + AZ VH SN82 (bispecific antibody, part only; not given: anti-EGFR arm, constant regions, V domains shown, not shown: another chain or arm of the molecule; a dimerising Fc or GST; small tags and cut ends) VH: EVQLVESGGALVKPGGSLRLSCAASGFTFSNAWMHWVRQAPGKQLEWVAQIKDRSQTYATYYAESVKGRFTISRDDSKNTLYLQMNSLKTEDTAVYYCRGVYYANTPFDYWGQGTLVTVSS VL: DIVMTQSPLSLPVTPGEPASISCRSSQSLVHNTGNTYLSWYLQKPGQSPQSLIYKVSNRASGVPDRFSGSGSGTDFTLKISRVEAEDVGVYYCGQGTQFPFTFGSGTKVEIK",1860,0.0422,22700
"EGFR-CD3 DuetMab with anti-CD3 variant AZ Vκ 17 + AZ VH E75 (bispecific antibody, part only; not given: anti-EGFR arm, constant regions, V domains shown, not shown: another chain or arm of the molecule; a dimerising Fc or GST; small tags and cut ends) VH: EVQLVESGGALVKPGGSLRLSCAASGFTFTEAWMHWVRQAPGKQLEWVAQIKDRSQTYATYYAESVKGRFTISRDDSKNTLYLQMNSLKTEDTAVYYCRGVYYANAPFDYWGQGTLVTVSS VL: DIVMTQSPLSLPVTPGEPASISCRSSQSLVHNTGNTYLSWYLQKPGQSPQSLIYKVSNRASGVPDRFSGSGSGTDFTLKISRVEAEDVGVYYCGQGTQAPFTFGSGTKVEIK",2790,0.0198,7100
"EGFR-CD3 DuetMab with anti-CD3 variant AZ Vκ 26 + AZ VH R75 (bispecific antibody, part only; not given: anti-EGFR arm, constant regions, V domains shown, not shown: another chain or arm of the molecule; a dimerising Fc or GST; small tags and cut ends) VH: EVQLVESGGALVKPGGSLRLSCAASGFTFTRAWMHWVRQAPGKQLEWVAQIKDRSQTYATYYAESVKGRFTISRDDSKNTLYLQMNSLKTEDTAVYYCRGVYYANAPFDYWGQGTLVTVSS VL: DIVMTQSPLSLPVTPGEPASISCRSSQSLVHNTGNTYLSWYLQKPGQSPQSLIYKVSNRASGVPDRFSGSGSGTDFTLKISRVEAEDVGVYYCGQGTQAPFSFGSGTKVEIK",217,0.00605,27900
